Assay results: patent publication US20110159050A1, “AMPHIPHILIC PROTEINS AS MORPHOLOGY MODIFIERS” (BASF SE, priority 2008, published 2011)
Entries after “also recorded” stand apart in the source; their conditions may differ.

Columns and labels:
[1] = Crystallisation of paracetamol in presence of hydrophobins (cooling from 95° C. to RT, visual assessment); format: physicochemical; conditions: 100 ppm protein; for visual assessment after 0 min (protein without API; no clouding = no denaturation): no API present, 95° C.; for visual assessment after 0 min / visual assessment <5 min: paracetamol present; for visual assessment after 0 min: after injection at 95° C.; for visual assessment <5 min: cooling at RT
Method: The hydrophobin solution is prepared by solubilization of 10 mg of lyophilized powder (protein content at least 60-80%) in 1 mL pure water. Insoluble residues are removed by centrifugation.
15 g of API (Paracetamol, Sigma) are dissolved in 150 mL pure water. Aliquots of 10 mL of the resulting solution are transferred into 15 mL sealable polypropylene tubes that have been pre-heated to 95° C. in order to prevent the onset of crystallization. To ensure uniform temperature, the tubes are shaken for 15-30 min at 95° and 750 rpm on a thermomixer (Eppendorf Thermomixer Comfort), then 100 μL of the hydrophobin solution is added under continued mixing at 95° C.; final protein concentration in the sample is 100 ppm. After 1-2 min the tubes are withdrawn from the thermomixer to allow cooling without shaking at RT. Control samples are treated in the same way except that 100 μL of pure water are added instead of the hydrophobin solution, or no API is present.

[2] = Crystallisation of benzamide in presence of SC, PO, TT or TR (cooling, visual assessment); format: physicochemical; conditions: 100 ppm protein
Method: 15 g of benzamide (Fluke) are dissolved in 150 mL pure water. Aliquots of 10 mL of the resulting solution are transferred into 15 mL sealable polypropylene tubes that have been pre-heated to 95° C. in order to prevent the onset of crystallization. To assure uniform temperature, the tubes are shaken for 15-30 min at 95° and 750 rpm on a thermomixer (Eppendorf Thermomixer Comfort), then 100 μL of the hydrophobin solution (prepared according to the method given in example 1) is added (the tubes are still shaken to allow homogeneous mixing and tempering). After 1-2 min the tubes are withdrawn from the thermomixer to allow cooling without shaking at RT. Control samples are treated in the same way except that 100 μL of pure water are added instead of the hydrophobin solution, or no API is present.
(§1) The results of a visual assessment after the hydrophobin injection (final concentration in the sample is 100 ppm) are compiled in the following table.

[3] = Crystallisation and redispersion of Venlafaxine (IPA, visual assessment); format: physicochemical; conditions: for re-suspension on pouring after vigorous shaking (Vortex) for 10-15 sec: Venlafaxine crystallized over night; for (RT) dispersability: Venlafaxine crystals
Method: 15 g of Venlafaxine (Ciba) are dissolved in 150 mL IPA. Aliquots of 10 mL of the resulting solution are transferred into 15 mL sealable polypropylene tubes that have been pre-heated to 95° C. To assure uniform temperature, the tubes are agitated for 15-30 min at 80° and 750 rpm on a thermomixer (Eppendorf Thermomixer Comfort), then 100 μL of the protein solution (prepared according to the method given in example 1) is added. Control samples are treated in the same way except that 100 μL of pure water are added instead of the hydrophobin solution, or no API is present.
as §1
The mother liquor crystallizes completely over night, with crystals adhering together covered by the solvent.

[4] = Crystallisation of Atorvastatin by evaporation in dishes, microscopic inspection; format: physicochemical; conditions: Atorvastatin in water/acetonitrile, 100 ppm hydrophobin, vs hydrophobin-free control
Method: a) 15 g of Atorvastatin (Ciba) are dissolved in 75 mL pure water and 75 mL acetonitrile by heating to 50° C. and stirring for 2 h. The resulting solution is filtered (0.45 μm). Aliquots of 10 mL are transferred into 15 mL sealable polypropylene tubes that have been pre-heated to 50° C. in order to prevent the onset of crystallization. To assure uniform temperature, the tubes are shaken for 15-30 min at 50° and 750 rpm on a thermomixer (Eppendorf Thermomixer Comfort), then 100 μL of the protein solution (prepared according to the method given in example 1) is added (final concentration: 100 ppm). Control samples are treated in the same way except that 100 μL of pure water are added instead of the hydrophobin solution, or no API is present.
1 mL of each sample is poured into dishes (Ø5 cm) in order to allow crystallization by evaporation. The dried crystals (˜20 h later) are microscopically inspected.

[5] = Atorvastatin crystallisation by evaporation on protein-coated object slides; format: physicochemical; conditions: object slides coated with protein (100 μg protein/mL over night), vs non-coated control
Method: b) In a further set of tests, object slides are coated with protein by incubation in a solution as prepared according to the method given in example 1 (100 μg protein/mL) over night. The object slides then are washed and air dried before 50 μL of Atorvastatin solution as described above is coated on the slide.

[6] = from 72; at 50 microgram/ml; cited from earlier work
[7] = Venlafaxine in IPA, 100 ppm protein

Row | Molecule | visual assessment after 0 min (protein without API; no clouding = no denaturation) [1] | visual assessment after 0 min [1] | visual assessment <5 min [1] | crystal size 15 min ([1]; paracetamol) | crystal size >20 h ([1]; paracetamol) | crystal size 15 min [2] | crystal size <5 min [2] | crystal size >20 h [2] | visual assessment <5 min [2] | visual assessment after 0 min [2] | re-suspension on pouring after vigorous shaking (Vortex) for 10-15 sec [3] | (RT) dispersability [3] | visual assessment 120 min [3, 7] | visual assessment after 0 min [3, 7] | crystal growth after crystallization by evaporation [4] | crystal growth by evaporation on coated glass surface [5] | further results
1 | PO: class I hydrophobin from Pleurotus ostreatus, produced recombinantly in E. coli (protein, UniProt O60048 22-113, looked up, recombinant in E. coli) Class I hydrophobin POH3: IPRTNPPAPTCTTGSLQCCNSVQAASNPVVGLLAGLLGIVLGPITGQVGLTCSPITVIGVGGTSCSAQTVCCNGNSFNGLIVVGCSPVNISL | clear | clouding | few crystals | cryst. 0.2-0.5 mm | crystals 0.5-1 mm | crystals 0.2-0.5 mm | 0.2-0.5 mm | crystals 0.5-1 mm | few crystals | clouding | predominantly the remaining mother liquor is poured out | poor | crystals | clouding | more evenly crystal growth | more regular crystal growth; also recorded: more evenly crystal growth | crystal size <5 min ([1]; paracetamol): 0.2-0.5 mm; crystal size 20 min [3, 7]: crystals 0.2 mm; crystal size <5 min [3, 7]: crystals 0.1 mm
2 | SC: class I hydrophobin from Schizophyllum commune, produced recombinantly in E. coli (protein, UniProt P16933 25-136, looked up, recombinant in E. coli) Class I hydrophobin SC3: GGHPGTTTPPVTTTVTVTTPPSTTTIAAGGTCTTGSLSCCNQVQSASSSPVTALLGLLGIVLSDLNVLVGISCSPLTVIGVGGSGCSAQTVCCENTQFNGLINIGCTPINIL | clear | streaks | clear | cryst. 0.1-0.2 mm | crystals 0.5 mm | crystals 0.1-0.2 mm | 0.1-0.2 mm | crystals 0.5-1 mm | few crystals | clouding | complete emptying of the tubes | Best dispersability and best | crystals | streaks | more evenly crystal growth | more regular crystal growth; also recorded: more evenly crystal growth | visual assessment 20 min [3, 7]: clear; visual assessment <5 min [3, 7]: clear; maximal lowering of the water surface tension [6]: 24 mJ m^−2
